Test results from US20220348894, “DNA MODIFYING ENZYMES AND ACTIVE FRAGMENTS AND VARIANTS THEREOF AND METHODS OF USE” (LifeEDIT Therapeutics, Inc., published 2022).

Legend:
Details in all cases: tags: SV40 NLS, 3xFLAG, nucleoplasmin NLS
LPG50140-nAPG07433.1 = LPG50140-nAPG07433.1 (synthetic); assay: cell_activity; mutated reads, HEK293FT; PAM 3' of target
Protocol: (§1) 500 ng of plasmid comprising an expression cassette comprising a coding sequence for a fusion protein shown in Table 10 and 500 ng of plasmid comprising an expression cassette encoding for an sgRNA shown in Table 11 were co-transfected into HEK293FT cells at 75-90% confluency in 24-well plates using Lipofectamine 2000 reagent (Life Technologies). Cells were then incubated at 37° C. for 72 h. Following incubation, genomic DNA was then extracted using NucleoSpin 96 Tissue (Macherey-Nagel) following the manufacturer's protocol. The genomic region flanking the targeted genomic site was PCR amplified using the primers in Table 11 and products were purified using ZR-96 DNA Clean and Concentrator (Zymo Research) following the manufacturer's protocol. The purified PCR products underwent Next Generation Sequencing on Illumina MiSeq. Typically, 100,000 of 250 bp paired-end reads (2×100,000 reads) are generated per amplicon. The reads were analyzed using CRISPResso (Pinello, et al. 2016 Nature Biotech, 34:695-697) to calculate the rates of editing. Output alignments were analyzed for INDEL formation or introduction of specific adenine mutations.
(§2) The editing rate for adenines within or proximal to the target sequence is indicated. “A5” indicates, for example, an adenine at position 5 of the target sequence. The position of each nucleotide in the target sequence was determined by numbering the first nucleotide in the target sequence closest to the PAM (which is 3′ of the target for APG07433.1) as position 1, and the position number increases in the 5′ direction away from the PAM sequence. The tables also show which nucleotide the adenine was changed to, and at what rate.

LPG50148-nAPG07433.1 = LPG50148-nAPG07433.1 (synthetic); assay: as above
Chain of LPG50148-nAPG07433.1 (synthetic) (chain, as listed by the source): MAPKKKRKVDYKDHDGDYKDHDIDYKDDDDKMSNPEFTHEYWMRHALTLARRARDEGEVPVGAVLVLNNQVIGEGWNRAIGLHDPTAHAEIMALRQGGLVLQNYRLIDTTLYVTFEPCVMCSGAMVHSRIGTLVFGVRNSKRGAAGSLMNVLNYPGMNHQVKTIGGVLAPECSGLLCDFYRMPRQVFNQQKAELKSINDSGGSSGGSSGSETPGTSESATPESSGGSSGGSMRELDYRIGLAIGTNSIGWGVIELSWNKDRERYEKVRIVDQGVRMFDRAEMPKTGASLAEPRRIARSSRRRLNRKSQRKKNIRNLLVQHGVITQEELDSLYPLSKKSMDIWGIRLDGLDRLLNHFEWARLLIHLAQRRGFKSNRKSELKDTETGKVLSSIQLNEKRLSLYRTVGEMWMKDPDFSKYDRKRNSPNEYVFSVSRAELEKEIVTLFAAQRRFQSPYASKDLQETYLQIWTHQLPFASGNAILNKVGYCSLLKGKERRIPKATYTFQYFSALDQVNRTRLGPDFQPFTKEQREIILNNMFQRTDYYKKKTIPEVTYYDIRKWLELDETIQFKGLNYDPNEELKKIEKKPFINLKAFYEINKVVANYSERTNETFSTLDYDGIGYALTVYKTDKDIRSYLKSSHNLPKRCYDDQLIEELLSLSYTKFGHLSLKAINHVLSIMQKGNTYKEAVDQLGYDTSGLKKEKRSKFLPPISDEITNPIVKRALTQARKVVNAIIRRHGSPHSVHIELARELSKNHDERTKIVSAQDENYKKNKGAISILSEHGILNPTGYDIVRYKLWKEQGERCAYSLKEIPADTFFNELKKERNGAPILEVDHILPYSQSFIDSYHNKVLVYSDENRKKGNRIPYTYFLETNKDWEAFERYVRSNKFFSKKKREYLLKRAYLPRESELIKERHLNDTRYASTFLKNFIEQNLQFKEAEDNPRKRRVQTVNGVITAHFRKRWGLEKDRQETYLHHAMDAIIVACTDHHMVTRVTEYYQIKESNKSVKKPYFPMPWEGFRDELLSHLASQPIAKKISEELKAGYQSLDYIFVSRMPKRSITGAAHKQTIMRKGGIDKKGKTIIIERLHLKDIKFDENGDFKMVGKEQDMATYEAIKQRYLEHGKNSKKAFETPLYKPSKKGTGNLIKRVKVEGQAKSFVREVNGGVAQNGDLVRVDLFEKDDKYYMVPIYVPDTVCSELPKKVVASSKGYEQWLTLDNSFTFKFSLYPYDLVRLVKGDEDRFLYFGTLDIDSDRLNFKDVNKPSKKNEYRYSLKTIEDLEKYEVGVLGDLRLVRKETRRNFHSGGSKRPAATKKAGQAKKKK
Protocol: as §1, §2

LPG50160-nAPG07433.1 = LPG50160-nAPG07433.1 (synthetic); assay: cell_activity; mutated reads, HEK293FT
Protocol: as §1, §2

LPG50143-nAPG07433.1 = LPG50143-nAPG07433.1 (synthetic); assay: cell_activity; mutated reads, HEK293FT
Protocol: as §1, §2

LPG50167-nAPG07433.1 = LPG50167-nAPG07433.1 (synthetic); assay: cell_activity; mutated reads, HEK293FT
Protocol: as §1, §2

LPG50147-nAPG07433.1 = LPG50147-nAPG07433.1 (synthetic); assay: cell_activity; mutated reads, HEK293FT
Protocol: as §1, §2

LPG50164-nAPG07433.1 = LPG50164-nAPG07433.1 (synthetic); assay: cell_activity; mutated reads, HEK293FT
Protocol: as §1, §2

LPG50157-nAPG07433.1 = LPG50157-nAPG07433.1 (synthetic); assay: cell_activity; mutated reads, HEK293FT
Protocol: as §1, §2

LPG50149-nAPG07433.1 = LPG50149-nAPG07433.1 (synthetic); assay: cell_activity; mutated reads, HEK293FT
Protocol: as §1, §2

LPG50177-nAPG07433.1 = LPG50177-nAPG07433.1 (synthetic); assay: cell_activity; mutated reads, HEK293FT
Protocol: as §1, §2

LPG50150-nAPG07433.1 = LPG50150-nAPG07433.1 (synthetic); assay: cell_activity; mutated reads, HEK293FT
Protocol: as §1, §2

LPG50169-nAPG07433.1 = LPG50169-nAPG07433.1 (synthetic); assay: cell_activity; mutated reads, HEK293FT
Protocol: as §1, §2

LPG50166-nAPG07433.1 = LPG50166-nAPG07433.1 (synthetic); assay: cell_activity; mutated reads, HEK293FT
Protocol: as §1, §2

LPG50170-nAPG07433.1 = LPG50170-nAPG07433.1 (synthetic); assay: cell_activity; mutated reads, HEK293FT
Protocol: as §1, §2

LPG50173-nAPG07433.1 = LPG50173-nAPG07433.1 (synthetic); assay: cell_activity; mutated reads, HEK293FT
Protocol: as §1, §2

LPG50158-nAPG07433.1 = LPG50158-nAPG07433.1 (synthetic); assay: cell_activity; mutated reads, HEK293FT
Protocol: as §1, §2

LPG50142-nAPG07433.1 = LPG50142-nAPG07433.1 (synthetic); assay: cell_activity; mutated reads, HEK293FT
Chain of LPG50142-nAPG07433.1 (synthetic) (chain, as listed by the source): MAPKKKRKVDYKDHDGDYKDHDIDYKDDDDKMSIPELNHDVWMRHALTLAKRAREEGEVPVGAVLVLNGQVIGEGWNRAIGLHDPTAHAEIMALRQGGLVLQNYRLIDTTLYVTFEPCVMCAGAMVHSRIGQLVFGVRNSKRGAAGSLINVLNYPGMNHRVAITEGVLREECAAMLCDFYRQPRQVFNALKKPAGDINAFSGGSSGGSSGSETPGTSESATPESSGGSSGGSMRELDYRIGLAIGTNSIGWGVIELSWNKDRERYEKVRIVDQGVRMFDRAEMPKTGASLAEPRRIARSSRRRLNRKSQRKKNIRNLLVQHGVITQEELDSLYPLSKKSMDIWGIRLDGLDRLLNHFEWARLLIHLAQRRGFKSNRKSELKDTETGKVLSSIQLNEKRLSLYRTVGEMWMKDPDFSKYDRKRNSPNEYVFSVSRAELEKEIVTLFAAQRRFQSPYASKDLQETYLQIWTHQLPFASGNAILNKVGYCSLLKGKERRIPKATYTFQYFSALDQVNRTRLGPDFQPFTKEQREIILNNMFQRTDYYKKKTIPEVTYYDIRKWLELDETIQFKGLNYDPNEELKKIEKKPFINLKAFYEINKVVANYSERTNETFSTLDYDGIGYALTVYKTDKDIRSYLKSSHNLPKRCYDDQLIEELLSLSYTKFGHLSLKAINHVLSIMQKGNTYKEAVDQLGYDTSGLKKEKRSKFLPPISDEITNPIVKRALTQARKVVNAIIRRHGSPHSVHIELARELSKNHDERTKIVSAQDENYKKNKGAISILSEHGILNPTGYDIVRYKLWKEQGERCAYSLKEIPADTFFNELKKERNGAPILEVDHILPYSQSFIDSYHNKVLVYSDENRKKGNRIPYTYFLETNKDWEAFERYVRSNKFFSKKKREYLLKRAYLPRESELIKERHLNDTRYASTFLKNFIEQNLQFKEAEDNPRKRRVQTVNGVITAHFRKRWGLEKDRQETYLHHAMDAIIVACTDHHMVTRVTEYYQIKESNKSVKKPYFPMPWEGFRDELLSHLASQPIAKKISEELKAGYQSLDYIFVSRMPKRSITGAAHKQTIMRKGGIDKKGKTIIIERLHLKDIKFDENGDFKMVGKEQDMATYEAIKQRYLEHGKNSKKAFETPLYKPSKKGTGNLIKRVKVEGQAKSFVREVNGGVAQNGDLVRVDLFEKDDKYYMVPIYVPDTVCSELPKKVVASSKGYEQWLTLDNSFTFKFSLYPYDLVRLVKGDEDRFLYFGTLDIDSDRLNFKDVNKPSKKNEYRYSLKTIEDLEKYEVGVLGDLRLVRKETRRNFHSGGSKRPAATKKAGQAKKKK
Protocol: as §1, §2

LPG50152-nAPG07433.1 = LPG50152-nAPG07433.1 (synthetic); assay: cell_activity; mutated reads, HEK293FT
Protocol: as §1, §2

LPG50168-nAPG07433.1 = LPG50168-nAPG07433.1 (synthetic); assay: cell_activity; mutated reads, HEK293FT
Protocol: as §1, §2

LPG50146-nAPG07433.1 = LPG50146-nAPG07433.1 (synthetic); assay: cell_activity; mutated reads, HEK293FT
Protocol: as §1, §2

LPG50159-nAPG07433.1 = LPG50159-nAPG07433.1 (synthetic); assay: cell_activity; mutated reads, HEK293FT
Protocol: as §1, §2

LPG50165-nAPG07433.1 = LPG50165-nAPG07433.1 (synthetic); assay: cell_activity; mutated reads, HEK293FT
Protocol: as §1, §2

LPG50179-nAPG07433.1 = LPG50179-nAPG07433.1 (synthetic); assay: cell_activity; mutated reads, HEK293FT
Protocol: as §1, §2

LPG50171-nAPG07433.1 = LPG50171-nAPG07433.1 (synthetic); assay: cell_activity; mutated reads, HEK293FT
Protocol: as §1, §2

LPG50176-nAPG07433.1 = LPG50176-nAPG07433.1 (synthetic); assay: cell_activity; mutated reads, HEK293FT
Chain of LPG50176-nAPG07433.1 (synthetic) (chain, as listed by the source): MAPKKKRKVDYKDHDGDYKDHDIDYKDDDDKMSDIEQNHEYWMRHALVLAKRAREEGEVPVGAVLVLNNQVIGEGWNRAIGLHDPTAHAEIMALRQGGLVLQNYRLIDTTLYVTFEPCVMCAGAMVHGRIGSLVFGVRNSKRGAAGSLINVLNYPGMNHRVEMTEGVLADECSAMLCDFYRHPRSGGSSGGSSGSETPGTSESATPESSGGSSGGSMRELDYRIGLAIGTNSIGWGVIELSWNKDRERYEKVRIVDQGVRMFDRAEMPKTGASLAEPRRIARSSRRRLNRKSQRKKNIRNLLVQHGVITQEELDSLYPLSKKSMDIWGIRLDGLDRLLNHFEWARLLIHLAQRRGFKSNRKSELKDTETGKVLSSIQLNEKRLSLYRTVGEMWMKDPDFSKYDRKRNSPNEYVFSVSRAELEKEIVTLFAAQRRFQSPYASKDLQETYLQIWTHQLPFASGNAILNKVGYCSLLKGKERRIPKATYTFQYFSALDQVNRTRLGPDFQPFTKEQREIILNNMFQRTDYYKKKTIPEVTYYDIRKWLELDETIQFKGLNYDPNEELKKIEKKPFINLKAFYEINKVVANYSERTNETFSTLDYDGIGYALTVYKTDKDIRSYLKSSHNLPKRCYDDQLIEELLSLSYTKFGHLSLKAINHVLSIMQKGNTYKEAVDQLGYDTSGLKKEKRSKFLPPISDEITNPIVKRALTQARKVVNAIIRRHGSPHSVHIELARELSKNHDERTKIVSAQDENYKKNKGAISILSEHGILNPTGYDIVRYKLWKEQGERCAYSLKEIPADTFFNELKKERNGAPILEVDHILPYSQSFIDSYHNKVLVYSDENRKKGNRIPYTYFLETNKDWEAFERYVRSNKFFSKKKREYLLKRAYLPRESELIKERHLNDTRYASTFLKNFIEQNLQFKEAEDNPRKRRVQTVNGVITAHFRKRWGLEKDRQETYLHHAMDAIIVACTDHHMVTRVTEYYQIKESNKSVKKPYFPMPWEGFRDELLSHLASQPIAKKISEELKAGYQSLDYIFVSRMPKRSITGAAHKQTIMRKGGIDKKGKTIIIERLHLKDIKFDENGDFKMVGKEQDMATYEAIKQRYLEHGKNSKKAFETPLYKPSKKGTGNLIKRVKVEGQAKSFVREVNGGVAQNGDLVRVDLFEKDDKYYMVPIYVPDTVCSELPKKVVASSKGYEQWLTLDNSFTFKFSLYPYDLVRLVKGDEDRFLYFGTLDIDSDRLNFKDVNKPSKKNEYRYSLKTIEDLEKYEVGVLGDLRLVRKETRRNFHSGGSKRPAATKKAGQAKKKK
Protocol: as §1, §2

LPG50156-nAPG07433.1 = LPG50156-nAPG07433.1 (synthetic); assay: cell_activity; mutated reads, HEK293FT
Protocol: as §1, §2

LPG50155-nAPG07433.1 = LPG50155-nAPG07433.1 (synthetic); assay: cell_activity; mutated reads, HEK293FT
Protocol: as §1, §2

LPG50182-nAPG07433.1 = LPG50182-nAPG07433.1 (synthetic); assay: cell_activity; mutated reads, HEK293FT
Protocol: as §1, §2

LPG50178-nAPG07433.1 = LPG50178-nAPG07433.1 (synthetic); assay: cell_activity; mutated reads, HEK293FT
Protocol: as §1, §2

LPG50181-nAPG07433.1 = LPG50181-nAPG07433.1 (synthetic); assay: cell_activity; mutated reads, HEK293FT
Protocol: as §1, §2

LPG50174-nAPG07433.1 = LPG50174-nAPG07433.1 (synthetic); assay: cell_activity; mutated reads, HEK293FT
Protocol: as §1, §2

LPG50144-nAPG07433.1 = LPG50144-nAPG07433.1 (synthetic); assay: cell_activity; mutated reads, HEK293FT
Protocol: as §1, §2

LPG50141-nAPG07433.1 = LPG50141-nAPG07433.1 (synthetic); assay: cell_activity; mutated reads, HEK293FT
Protocol: as §1, §2

LPG50151-nAPG07433.1 = LPG50151-nAPG07433.1 (synthetic); assay: cell_activity; mutated reads, HEK293FT
Protocol: as §1, §2

LPG50175-nAPG07433.1 = LPG50175-nAPG07433.1 (synthetic); assay: cell_activity; mutated reads, HEK293FT
Protocol: as §1, §2

LPG50162-nAPG07433.1 = LPG50162-nAPG07433.1 (synthetic); assay: cell_activity; mutated reads, HEK293FT
Protocol: as §1, §2

LPG50145-nAPG07433.1 = LPG50145-nAPG07433.1 (synthetic); assay: cell_activity; mutated reads, HEK293FT
Protocol: as §1, §2

LPG50163-nAPG07433.1 = LPG50163-nAPG07433.1 (synthetic); assay: cell_activity; mutated reads, HEK293FT
Protocol: as §1, §2

LPG50161-nAPG07433.1 = LPG50161-nAPG07433.1 (synthetic); assay: cell_activity; mutated reads, HEK293FT
Protocol: as §1, §2

LPG50153-nAPG07433.1 = LPG50153-nAPG07433.1 (synthetic); assay: cell_activity; mutated reads, HEK293FT
Protocol: as §1, §2

LPG50180-nAPG07433.1 = LPG50180-nAPG07433.1 (synthetic); assay: cell_activity; mutated reads, HEK293FT
Protocol: as §1, §2

LPG50172-nAPG07433.1 = LPG50172-nAPG07433.1 (synthetic); assay: cell_activity; mutated reads, HEK293FT
Protocol: as §1, §2

LPG50154-nAPG07433.1 = LPG50154-nAPG07433.1 (synthetic); assay: cell_activity; mutated reads, HEK293FT
Protocol: as §1, §2

B1: SGN000186 sgRNA (Table 11) ; SGN000186 target (Table 11) (ssRNA ; dsDNA)
RNA: GGACAGUGCGCAUCUCCCUGGUCAUAGUUCCAUUAAAGCCAAAAGUGGCUUUGAUGUUUCUAUGAUAAGGGUUUCGACCCGUGGCGUCGGGGAUCGCCUGCCCAUUGAAAUGGGCUUCUCCCCAUUUAUU
DNA 1: GGACAGTGCGCATCTCCCTG
DNA 2: CAGGGAGATGCGCACTGTCC
activity (LPG50140-nAPG07433.1): 18.8% | activity (LPG50148-nAPG07433.1): 32.6% | activity (LPG50160-nAPG07433.1): 16% | activity (LPG50143-nAPG07433.1): 10.6% | activity (LPG50167-nAPG07433.1): 8% | activity (LPG50147-nAPG07433.1): 12.6% | activity (LPG50164-nAPG07433.1): 7.38% | activity (LPG50157-nAPG07433.1): 12.2% | activity (LPG50149-nAPG07433.1): 22.1% | activity (LPG50177-nAPG07433.1): 11% | activity (LPG50150-nAPG07433.1): 23.7% | activity (LPG50169-nAPG07433.1): 13% | activity (LPG50166-nAPG07433.1): 8% | activity (LPG50170-nAPG07433.1): 12.2% | activity (LPG50173-nAPG07433.1): 7.88% | activity (LPG50158-nAPG07433.1): 4.91% | activity (LPG50142-nAPG07433.1): 14.1% | activity (LPG50152-nAPG07433.1): 18% | activity (LPG50168-nAPG07433.1): 7% | activity (LPG50146-nAPG07433.1): 17.8% | activity (LPG50159-nAPG07433.1): 6.99% | activity (LPG50165-nAPG07433.1): 9.88% | activity (LPG50179-nAPG07433.1): 12.5% | activity (LPG50171-nAPG07433.1): 12.7% | activity (LPG50176-nAPG07433.1): 7% | activity (LPG50156-nAPG07433.1): 12.7% | activity (LPG50155-nAPG07433.1): 17% | activity (LPG50182-nAPG07433.1): 9% | activity (LPG50178-nAPG07433.1): 12.9% | activity (LPG50181-nAPG07433.1): 12.6% | activity (LPG50174-nAPG07433.1): 8% | activity (LPG50144-nAPG07433.1): 12.2% | activity (LPG50141-nAPG07433.1): 9.79% | activity (LPG50151-nAPG07433.1): 7.76% | activity (LPG50175-nAPG07433.1): 14% | activity (LPG50162-nAPG07433.1): 14% | activity (LPG50145-nAPG07433.1): 9.93% | activity (LPG50163-nAPG07433.1): 10%

B2: SGN001681 sgRNA ; SGN001681 target (ssRNA ; dsDNA)
RNA: CCGUGCCUUGACCUACCCUGGUCAUAGUUCCAUUAAAGCCAAAAGUGGCUUUGAUGUUUCUAUGAUAAGGGUUUCGACCCGUGGCGUCGGGGAUCGCCUGCCCAUUGAAAUGGGCUUCUCCCCAUUUAUU
DNA 1: CCGTGCCTTGACCTACCCTG
DNA 2: CAGGGTAGGTCAAGGCACGG
activity (LPG50148-nAPG07433.1): 49.4% | activity (LPG50161-nAPG07433.1): 1.47% | activity (LPG50153-nAPG07433.1): 1.12% | activity (LPG50180-nAPG07433.1): 1.8% | activity (LPG50172-nAPG07433.1): 1.78% | activity (LPG50154-nAPG07433.1): 2.26%
